PMC4525180 (Nature communications, 2015)

B1: Rad55–Rad57 complex (complex, S. cerevisiae)
chain 1: MSLGIPLSQLIVESPKPLSSGITGLDEILNLGFQARSIYEIFGPPGIGKTNFGIQLVCNSLEGIQQSEINDDKILWIETFQEMPINILRERFQKFKIVEENVKRVRITKFGQLLYFFQNLFKLSQSVRYKLVIIDGFSQLVCDHLCTLSKRGGGMIDKTIHELKCRHLILIFTVMTKYTHSTGSTIIVLNDCMNTAFQSNEFESLEEYYEILDDGSNFFVNSNNERRKNNVHILKSALVANIAMGSKDSTWEVFLRDRIGLFRDWNEQVDETVFVKSKRVKASSSQSNEGCTTIKEMRINKRNFENLRIAIVFNLHGEDRKREGRNLKRSRSSDDRNYIVKFDFDKATGQLRDIIDLKPDTANIASFPTLSTSSSSCSQVFNNIDSNDNPLPNAEGKEEIIYDSEG
chain 2: MPRALSIKFDNTYMDLYDELPESKLLYDEEFSYLLDAVRQNGVCVVDFLTLTPKELARLIQRSINEVFRFQQLLVHEYNEKYLEICEKNSISPDNGPECFTTADVAMDELLGGGIFTHGITEIFGESSTGKSQLLMQLALSVQLSEPAGGLGGKCVYITTEGDLPTQRLESMLSSRPAYEKLGITQSNIFTVSCNDLINQEHIINVQLPILLERSKGSIKLVIIDSISHHLRVELQNKSFRESQENKNYLDRMAEKLQILAHDYSLSVVVANQVGDKPLANSPVAHRTYVTDYDYQLGWLVGWKNSTILYRQMNSLLGASSNNDEILSDDEDYMLIERVMSTVNDRNYDFFSKKKPPIIENKTVERNSSSPISRQSKKRKFDYRVPNLGLTWSNHVSTRILLQKSFKASTIIQRGEAHLYKGGDSASFWQVKRTMKVVYSTFAKPGQIAYQITKRGIETA
B2: Csm2–Psy3 heterodimer (complex, S. cerevisiae)
chain 1: MEYEDLELITIWPSPTKNKLCQFIKQNLSKEHVVTQLFFIDATSSFPLSQFQKLVPPTLPENVRIYENIRINTCLDLEELSAITVKLLQILSMNKINAQRGTEDAVTEPLKIILYINGLEVMFRNSQFKSSPQRSHELLRDTLLKLRVMGNDENENASIRTLLEFPKEQLLDYYLKKNNNTRTSSVRSKRRRIKNGDSLAEYIWKYYADSLFE
chain 2: MEVLKNIRIYPLSNFITSTKNYINLPNELRNLISEEQESKLGFLHIIESDFKPSVALQKLVNCTTGDEKILIIDIVSIWSQQKQRQHGAIYMNSLSCINITGLIVFLELLYDSPMDALRRCQVDNFNFQLRGIVIDNLSFLNFESDKNYDVINLSKFEKLFKILRKLREFLGCWIITKSFPTDFYNGIENTLVDKWSIKRKSGVTLYPTKLPDSYMKGMDLIIYREVVDGRPQYRRIAALEE
B3: Shu complex (Csm2–Psy3–Shu1–Shu2) (complex, S. cerevisiae)
chain 1: B2 chain 1
chain 2: B2 chain 2
chain 3: MQFEERLQQLVESDWSLDQSSPNVLVIVLGDTARKYVELGGLKEHVTTNTVAGHVASRERVSVVFLGRVKYLYMYLTRMQAQANGPQYSNVLVYGLWDLTATQDGPQQLRLLSLVLRQCLSLPSKVEFYPEPPSSSVPARLLRFWDHIIR
chain 4: MSKDVIEYSKLFAKLVNTNDDTKLDDTIASFLYYMFPRELFIRAISLLESSDMFIYILDRVHNKEGNEHTSLIDVLVDEFYKGSSNSLLEYRLIVKDTNDGAPPILVDIAHWFCSCEEFCKYFHEALEKTDEKEELHDVLINEVDDHLQFSDDRFAQLDPHSLSKQWYFKFDKVCCSHLLAFSILLRSSINVLKFFTVNSNKVFVIAIDNIDEWLNLHINIVE
B4: Rad51 (natural protein, S. cerevisiae, UniProt P25454 1-400, looked up)
chain: MSQVQEQHISESQLQYGNGSLMSTVPADLSQSVVDGNGNGSSEDIEATNGSGDGGGLQEQAEAQGEMEDEAYDEAALGSFVPIEKLQVNGITMADVKKLRESGLHTAEAVAYAPRKDLLEIKGISEAKADKLLNEAARLVPMGFVTAADFHMRRSELICLTTGSKNLDTLLGGGVETGSITELFGEFRTGKSQLCHTLAVTCQIPLDIGGGEGKCLYIDTEGTFRPVRLVSIAQRFGLDPDDALNNVAYARAYNADHQLRLLDAAAQMMSESRFSLIVVDSVMALYRTDFSGRGELSARQMHLAKFMRALQRLADQFGVAVVVTNQVVAQVDGGMAFNPDPKKPIGGNIMAHSSTTRLGFKKGKGCQRLCKVVDSPCLPEAECVFAIYEDGVGDPREEDE

Experiments:
Settings in all cases: both partners purified
GST-tagged Rad52 = GST-tagged Rad52 (S. cerevisiae, UniProt P06778 1-471); experiment: pull-down; GST–Rad52 with one partner, captured on glutathione resin; buffer with 100 mM KCl, no imidazole, 4 °C; anti-FLAG immunoblot (FLAG on Rad57 and Psy3)
Rad55–Rad57 complex [1] = target: B1; experiment: pull-down; His-tagged Rad55–Rad57 (0.5 μg) with Csm2–Psy3 (0.5 μg), captured on Ni-NTA resin through (His)6 on Rad55; buffer C (20 mM MOPS pH 7.2, 150 mM KCl, 1 mM ATP, 2 mM MgCl2, 15 mM imidazole), 4 °C, washes with 200 mM KCl; SDS-PAGE, Coomassie
Rad55–Rad57 complex [2] = target: B1; experiment: pull-down; Shu complex with Rad55–Rad57; set-up only in Supplementary Fig. 2a
Rad55–Rad57 complex [3] = target: B1; experiment: pull-down; pull-down with Rad51; set-up only in Supplementary Fig. 2b; also with Csm2–Psy3 added to Rad55–Rad57 and Rad51

Sequence of GST-tagged Rad52 (P06778 whole entry): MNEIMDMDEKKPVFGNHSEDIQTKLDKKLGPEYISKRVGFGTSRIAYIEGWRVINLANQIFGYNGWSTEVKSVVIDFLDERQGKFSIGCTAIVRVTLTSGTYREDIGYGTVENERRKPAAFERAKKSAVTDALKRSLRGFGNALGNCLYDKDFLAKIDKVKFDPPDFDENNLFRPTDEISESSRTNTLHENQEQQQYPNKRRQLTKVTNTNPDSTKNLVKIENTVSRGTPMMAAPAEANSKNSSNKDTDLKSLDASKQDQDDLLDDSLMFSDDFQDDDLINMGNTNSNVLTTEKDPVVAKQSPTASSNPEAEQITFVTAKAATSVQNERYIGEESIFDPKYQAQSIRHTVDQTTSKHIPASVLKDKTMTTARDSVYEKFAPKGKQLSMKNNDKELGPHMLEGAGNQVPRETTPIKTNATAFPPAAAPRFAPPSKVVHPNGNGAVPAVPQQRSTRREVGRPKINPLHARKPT

Binder: B1
binding result (GST-tagged Rad52): binds

Binder: B2
binding result (Rad55–Rad57 complex [1]): binds

Binder: B3
binding result (Rad55–Rad57 complex [2]): binds

Binder: B4
binding result (Rad55–Rad57 complex [3]): binds
